Article PMC1976452
Read-outs that look alike come from different tables or passages of the source.

Columns and labels:
[1] = molecular target: T1, thrombin (Amersham Biosciences) (human, UniProt P00734;P00734 315-363;364-622); experiment: filter binding
[2] = molecular target: T1, thrombin (Amersham Biosciences); experiment: filter binding; remark: listed apart in the source

Binder | binding result [1] | binding result [2]
GTCTCTTGTGTGACTCTGGTAAC (ssDNA) [P8 ssDNA control] | no binding | –
GGACUUCGGUCC (structured_RNA) [H1 RNA hairpin control] | – | no binding
